Assay [1] addresses Taxol-stabilized microtubules polymerised from bovine tubulin (bovine) (UniProt Q6B856). The assay can be described thus: wide-field fluorescence microscopy of labelled protein on microtubules; 1 µM TMR-labeled She1 construct preincubated with 60 nM Taxol-stabilized HiLyte 488–labeled MTs, room temperature, 20 min, MAP-binding buffer with 150 mM KCl and 20 µM Taxol; MTs held in a flow chamber by antitubulin antibody; bound TMR fluorescence on the MT measured.

The target in assay [2] is T1, full-length She1 (She1-FL), HALO-tagged (S. cerevisiae), P38200.
T1 chain: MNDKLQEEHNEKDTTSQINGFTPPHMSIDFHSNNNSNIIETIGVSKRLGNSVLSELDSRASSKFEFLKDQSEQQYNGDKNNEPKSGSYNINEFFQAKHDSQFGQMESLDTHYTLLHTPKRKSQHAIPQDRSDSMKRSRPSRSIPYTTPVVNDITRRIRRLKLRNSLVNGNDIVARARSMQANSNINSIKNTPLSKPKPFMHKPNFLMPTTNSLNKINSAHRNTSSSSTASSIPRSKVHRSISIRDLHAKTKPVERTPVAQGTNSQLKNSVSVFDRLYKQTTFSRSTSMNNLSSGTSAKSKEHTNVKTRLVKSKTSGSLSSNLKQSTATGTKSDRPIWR
The assay can be described thus: negative-stain EM; purified She1-FL at 4 µM on carbon-coated grids, 0.75% uranyl formate. The following applies: remark: other sources report otherwise.

Assay [3] concerns the target Taxol-stabilized microtubules polymerised from bovine tubulin (bovine) (UniProt Q6B856). The assay can be described thus: co-sedimentation; low-speed microfuge pelleting (15,871 g, 10 min, room temperature); 5 µM She1-C–TMR with varying concentrations of Taxol-stabilized MTs, MAP buffer with 50 mM KCl; quadratic fit, apparent dissociation constant; stoichiometry from the saturation point.

The values that follow come from PMC5584168.

B1: full-length She1 (She1-FL), HALO-tagged (natural protein)
chain: MNDKLQEEHNEKDTTSQINGFTPPHMSIDFHSNNNSNIIETIGVSKRLGNSVLSELDSRASSKFEFLKDQSEQQYNGDKNNEPKSGSYNINEFFQAKHDSQFGQMESLDTHYTLLHTPKRKSQHAIPQDRSDSMKRSRPSRSIPYTTPVVNDITRRIRRLKLRNSLVNGNDIVARARSMQANSNINSIKNTPLSKPKPFMHKPNFLMPTTNSLNKINSAHRNTSSSSTASSIPRSKVHRSISIRDLHAKTKPVERTPVAQGTNSQLKNSVSVFDRLYKQTTFSRSTSMNNLSSGTSAKSKEHTNVKTRLVKSKTSGSLSSNLKQSTATGTKSDRPIWR
modifications: HaloTag TMR ligand (MT-binding and cross-linking assays) or HaloTag Alexa Fluor 488 ligand (ultracentrifugation) on the HALO tag
Regarding B1, in assay [1], the mean TMR fluorescence on MTs turned out to be 22000 a.u.

B2: full-length She1 (She1-FL), HALO-tagged, P38200 1-338 (natural protein)
chain: MNDKLQEEHNEKDTTSQINGFTPPHMSIDFHSNNNSNIIETIGVSKRLGNSVLSELDSRASSKFEFLKDQSEQQYNGDKNNEPKSGSYNINEFFQAKHDSQFGQMESLDTHYTLLHTPKRKSQHAIPQDRSDSMKRSRPSRSIPYTTPVVNDITRRIRRLKLRNSLVNGNDIVARARSMQANSNINSIKNTPLSKPKPFMHKPNFLMPTTNSLNKINSAHRNTSSSSTASSIPRSKVHRSISIRDLHAKTKPVERTPVAQGTNSQLKNSVSVFDRLYKQTTFSRSTSMNNLSSGTSAKSKEHTNVKTRLVKSKTSGSLSSNLKQSTATGTKSDRPIWR
modifications: here or on the partner: HaloTag TMR ligand (MT-binding and cross-linking assays) or HaloTag Alexa Fluor 488 ligand (ultracentrifugation) on the HALO tag; HaloTag TMR ligand (MT-binding and cross-linking assays) or HaloTag Alexa Fluor 488 ligand (ultracentrifugation) on the HALO tag
By stoichiometry N is commonly meant the number of molecules, sites or subunits per partner or assembly. For B2, the stoichiometry N in assay [2] is 6.

B3: She1-C, C-terminal 194–338 aa of She1, HALO-tagged (domain or fragment)
chain: SKPKPFMHKPNFLMPTTNSLNKINSAHRNTSSSSTASSIPRSKVHRSISIRDLHAKTKPVERTPVAQGTNSQLKNSVSVFDRLYKQTTFSRSTSMNNLSSGTSAKSKEHTNVKTRLVKSKTSGSLSSNLKQSTATGTKSDRPIWR
modifications: HaloTag TMR ligand on the HALO tag where labelled
On to B3, for which the stoichiometry N (She1-C–TMR per tubulin) in assay [3] turned out to be 1. In assay [1], the mean TMR fluorescence on MTs was 21000 a.u.
